Here are results for 2 molecules from paper PMC9542132.

The target of test [1] is CdvB1 from Metallosphaera sedula, MBP tag cleaved off with 3C protease (Metallosphaera sedula). Description: co-sedimentation; 1 uM MBP-CdvB1 with 0.1 uM 3C protease, 50 mM HEPES pH 7.4, 50 mM NaCl, 5 mM MgCl2, Ficoll 41.25 mg/mL, overnight at 4 °C; 0.6 uM CdvC added, nucleotide or buffer, 2 min at 50 °C; 140 000 g 30 min at 4 °C; pellet and supernatant on SDS/PAGE.
Test [2] shares this target.
Test [3] has the same target. This is another data set of the same source.

With “CdvB1 from Metallosphaera sedula, MBP tag cleaved off with 3C protease (natural protein)”, the filament-to-monomer ratio (with CdvC and ADP or ATPγS, no hydrolysable nucleotide) in test [1] turned out to be 2.

B1: CdvC from Metallosphaera sedula (enzyme)
chain: MSAQVMLEEMARKYAIAAVRADKEGRREDAINNYKKAIEVLTQIVTLYPDMVARNAYEQMINEYKKRLETLNQMVPEGGEETEKAEEDIVMKEKPKVTLNEIVGLEDVKEALKEAVVYPSKRPDLFPLGWPRGILLYGPPGCGKTMIAAAVANELDSEFIHVDAASIMSKWLGEAEKNVAKIFKTARELSKKENKPAIIFIDELDALLASYTSEVGGEARVRNQFLKEMDGLADKNEISKVYVIGATNKPWRLDEPFLRRFQKRIYITLPDKAHRLELLKHYSSKVKLDPNVNLEELAELTDGYTASDIRDIVQSAHMRVVKEMFEKNLQEPRAINMDDFREVLKVRKPSVNQDMLKAYAAWHEKFKAL
For B1, the filament-to-monomer (pellet-to-supernatant) ratio of CdvB1 in the sedimentation assay after CdvC with ATP, 2 min at 50 °C in test [2] came out at 0.1. Besides, the ATP consumed by CdvC (0.1 uM) in 25 min at 50 °C with CdvB1 filaments (1 uM) against CdvC alone in test [3] was found to be 8 fold.
